Assay results published in patent publication US20160257957.

Key:
[1] = target: T1, HHR23A (recombinant, wild type), P54725
T1 chain: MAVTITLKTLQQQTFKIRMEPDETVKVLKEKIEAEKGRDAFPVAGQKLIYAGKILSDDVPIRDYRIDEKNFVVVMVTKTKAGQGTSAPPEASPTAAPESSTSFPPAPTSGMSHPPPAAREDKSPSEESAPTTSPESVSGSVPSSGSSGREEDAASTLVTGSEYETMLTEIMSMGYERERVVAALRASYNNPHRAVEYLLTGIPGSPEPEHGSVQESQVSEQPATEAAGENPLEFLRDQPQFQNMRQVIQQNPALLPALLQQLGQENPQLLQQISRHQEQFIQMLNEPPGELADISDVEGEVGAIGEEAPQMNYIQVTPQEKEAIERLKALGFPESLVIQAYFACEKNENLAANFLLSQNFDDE

[2] = target: T2, Arc C-terminal protein (132-396 a.a.), Q63053
T2 chain: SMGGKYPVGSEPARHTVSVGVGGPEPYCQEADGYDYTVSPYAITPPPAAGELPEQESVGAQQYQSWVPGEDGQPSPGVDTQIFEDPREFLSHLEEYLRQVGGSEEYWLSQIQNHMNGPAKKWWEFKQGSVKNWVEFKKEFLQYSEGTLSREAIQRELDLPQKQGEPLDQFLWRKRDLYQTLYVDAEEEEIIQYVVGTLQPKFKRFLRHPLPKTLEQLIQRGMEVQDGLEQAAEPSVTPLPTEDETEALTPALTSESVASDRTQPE

B1: Ube3A (recombinant) (protein)
chain: SGEPQSDDIEASRMKRAAAKHLIERYYHQLTEGCGNEACTNEFCASCPTFLRMDNNAAAIKALELYKINAKLCDPHPSKKGASSAYLENSKGAPNNSCSEIKMNKKGARIDFKDVTYLTEEKVYEILELCREREDYSPLIRVIGRVFSSAEALVQSFRKVKQHTKEELKSLQAKDEDKDEDEKEKAACSAAAMEEDSEASSSRIGDSSQGDNNLQKLGPDDVSVDIDAIRRVYTRLLSNEKIETAFLNALVYLSPNVECDLTYHNVYSRDPNYLNLFIIVMENRNLHSPEYLEMALPLFCKAMSKLPLAAQGKLIRLWSKYNADQIRRMMETFQQLITYKVISNEFNSRNLVNDDDAIVAASKCLKMVYYANVVGGEVDTNHNEEDDEEPIPESSELTLQELLGEERRNKKGPRVDPLETELGVKTLDCRKPLIPFEEFINEPLNEVLEMDKDYTFFKVETENKFSFMTCPFILNAVTKNLGLYYDNRIRMYSERRITVLYSLVQGQQLNPYLRLKVRRDHIIDDALVRLEMIAMENPADLKKQLYVEFEGEQGVDEGGVSKEFFQLVVEEIFNPDIGMFTYDESTKLFWFNPSSFETEGQFTLIGIVLGLAIYNNCILDVHFPMVVYRKLMGKKGTFRDLGDSHPVLYQSLKDLLEYEGNVEDDMMITFQISQTDLFGNPMMYDLKENGDKIPITNENRKEFVNLYSDYILNKSVEKQFKAFRRGFHMVTNESPLKYLFRPEEIELLICGSRNLDFQALEETTEYDGGYTRDSVLIREFWEIVHSFTDEQKRLFLQFTTGTDRAPVGGLGKLKMIIAKNGPDTERLPTSHTCFNVLLLPEYSSKEKLKERLLKAITYAKGFGML
Which results are given for B1?
ubiquitination of HHR23A by Ube3A [1]: this domain is required for Ube3A to ubiquitinate HHR23A; in vitro ubiquitination assay using purified recombinant proteins [2]: Ube3A ubiquitinated Arc in vitro
